According to US20230236179A1:

Key:
[1] = target: human Brachyury protein standard (Abcam ab114235) (human) (UniProt O15178); assay: conventional Simoa sandwich (capture beads + detector m8), 150 pM SβG/5 min; Brachyury at 150 fM
[2] = target: human Brachyury protein standard (Abcam ab114235) (human) (UniProt O15178); assay: dSimoa sandwich (capture beads + detector m8), 300 pM streptavidin-DNA/15 min; Brachyury at 30 fM
[3] = target: human Brachyury protein standard (Abcam ab114235) (human) (UniProt O15178); assay: conventional Simoa sandwich (capture beads + detector m8), 150 pM SβG/5 min; Brachyury at 1.2 fM
[4] = target: human Brachyury protein standard (Abcam ab114235) (human) (UniProt O15178); assay: dSimoa sandwich (capture beads + detector m8), 300 pM streptavidin-DNA/15 min; Brachyury at 0.048 fM
[5] = target: human Brachyury protein standard (Abcam ab114235) (human) (UniProt O15178); assay: conventional Simoa sandwich (capture beads + detector m8), 150 pM SβG/5 min; Brachyury at 0.24 fM
[6] = target: human Brachyury protein standard (Abcam ab114235) (human) (UniProt O15178); assay: conventional Simoa sandwich (capture beads + detector m8), 150 pM SβG/5 min; Brachyury at 1500 fM
[7] = target: human Brachyury protein standard (Abcam ab114235) (human) (UniProt O15178); assay: conventional Simoa sandwich (capture beads + detector m8), 300 pM SβG/15 min; Brachyury at 30 fM
[8] = target: human Brachyury protein standard (Abcam ab114235) (human) (UniProt O15178); assay: conventional Simoa sandwich (capture beads + detector m8), 150 pM SβG/5 min; Brachyury at 0.048 fM
[9] = target: human Brachyury protein standard (Abcam ab114235) (human) (UniProt O15178); assay: conventional Simoa sandwich (capture beads + detector m8), 300 pM SβG/15 min; Brachyury at 0.24 fM
[10] = target: human Brachyury protein standard (Abcam ab114235) (human) (UniProt O15178); assay: conventional Simoa sandwich (capture beads + detector m8), 300 pM SβG/15 min; Brachyury at 6 fM
[11] = target: human Brachyury protein standard (Abcam ab114235) (human) (UniProt O15178); assay: dSimoa sandwich (capture beads + detector m8), 300 pM streptavidin-DNA/15 min; Brachyury at 1.2 fM
[12] = target: human Brachyury protein standard (Abcam ab114235) (human) (UniProt O15178); assay: conventional Simoa sandwich (capture beads + detector m8), 300 pM SβG/15 min; Brachyury at 1500 fM
[13] = target: human Brachyury protein standard (Abcam ab114235) (human) (UniProt O15178); assay: dSimoa sandwich (capture beads + detector m8), 300 pM streptavidin-DNA/15 min; Brachyury at 0.24 fM
[14] = target: human Brachyury protein standard (Abcam ab114235) (human) (UniProt O15178); assay: conventional Simoa sandwich (capture beads + detector m8), 150 pM SβG/5 min; Brachyury at 6 fM
[15] = target: human Brachyury protein standard (Abcam ab114235) (human) (UniProt O15178); assay: conventional Simoa sandwich (capture beads + detector m8), 150 pM SβG/5 min; Brachyury at 30 fM
[16] = target: human Brachyury protein standard (Abcam ab114235) (human) (UniProt O15178); assay: conventional Simoa sandwich (capture beads + detector m8), 300 pM SβG/15 min; Brachyury at 0.048 fM
[17] = target: human Brachyury protein standard (Abcam ab114235) (human) (UniProt O15178); assay: dSimoa sandwich (capture beads + detector m8), 300 pM streptavidin-DNA/15 min; Brachyury at 150 fM
[18] = target: human Brachyury protein standard (Abcam ab114235) (human) (UniProt O15178); assay: dSimoa sandwich (capture beads + detector m8), 300 pM streptavidin-DNA/15 min; Brachyury at 6 fM
[19] = target: human Brachyury protein standard (Abcam ab114235) (human) (UniProt O15178); assay: conventional Simoa sandwich (capture beads + detector m8), 300 pM SβG/15 min; Brachyury at 150 fM
[20] = target: human Brachyury protein standard (Abcam ab114235) (human) (UniProt O15178); assay: conventional Simoa sandwich (capture beads + detector m8), 300 pM SβG/15 min; Brachyury at 1.2 fM
[21] = target: IL-6 protein standard (R&D Systems 206-IL-010) (UniProt P05231); assay: CARD-dELISA sandwich (capture beads + detection antibody m11, streptavidin-poly-HRP, tyramide); IL-6 at 10 fM
Chain of UniProt P05231 (P05231 30-212 limits assumed): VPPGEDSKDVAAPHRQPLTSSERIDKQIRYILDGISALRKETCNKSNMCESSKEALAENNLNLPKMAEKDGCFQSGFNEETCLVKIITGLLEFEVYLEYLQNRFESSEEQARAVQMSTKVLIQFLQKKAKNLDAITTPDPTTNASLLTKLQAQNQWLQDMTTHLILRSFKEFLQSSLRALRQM

[22] = target: IL-6 protein standard (R&D Systems 206-IL-010) (UniProt P05231); assay: CARD-dELISA sandwich (capture beads + detection antibody m11, streptavidin-poly-HRP, tyramide); IL-6 at 0.5 fM
[23] = target: IL-6 protein standard (R&D Systems 206-IL-010) (UniProt P05231); assay: conventional Simoa sandwich on HD-1 (capture beads + detection antibody m11, SβG); IL-6 at 0.5 fM
[24] = target: IL-6 protein standard (R&D Systems 206-IL-010) (UniProt P05231); assay: conventional Simoa sandwich on HD-1 (capture beads + detection antibody m11, SβG); IL-6 at 0.1 fM
[25] = target: IL-6 protein standard (R&D Systems 206-IL-010) (UniProt P05231); assay: CARD-dELISA sandwich (capture beads + detection antibody m11, streptavidin-poly-HRP, tyramide); IL-6 at 50 fM
[26] = target: IL-6 protein standard (R&D Systems 206-IL-010) (UniProt P05231); assay: conventional Simoa sandwich on HD-1 (capture beads + detection antibody m11, SβG); IL-6 at 10 fM
[27] = target: IL-6 protein standard (R&D Systems 206-IL-010) (UniProt P05231); assay: conventional Simoa sandwich on HD-1 (capture beads + detection antibody m11, SβG); IL-6 at 100 fM
[28] = target: IL-6 protein standard (R&D Systems 206-IL-010) (UniProt P05231); assay: CARD-dELISA sandwich (capture beads + detection antibody m11, streptavidin-poly-HRP, tyramide); IL-6 at 100 fM
[29] = target: IL-6 protein standard (R&D Systems 206-IL-010) (UniProt P05231); assay: CARD-dELISA sandwich (capture beads + detection antibody m11, streptavidin-poly-HRP, tyramide); IL-6 at 1 fM
[30] = target: IL-6 protein standard (R&D Systems 206-IL-010) (UniProt P05231); assay: CARD-dELISA sandwich (capture beads + detection antibody m11, streptavidin-poly-HRP, tyramide); IL-6 at 0.1 fM
[31] = target: IL-6 protein standard (R&D Systems 206-IL-010) (UniProt P05231); assay: conventional Simoa sandwich on HD-1 (capture beads + detection antibody m11, SβG); IL-6 at 1 fM
[32] = target: IL-6 protein standard (R&D Systems 206-IL-010) (UniProt P05231); assay: conventional Simoa sandwich on HD-1 (capture beads + detection antibody m11, SβG); IL-6 at 50 fM
[33] = target: human interleukin-10 (IL-10) protein standard (printed as Biolegend 501501) (human) (UniProt P22301); assay: dSimoa sandwich (capture beads + detector m5), 150 pM streptavidin-DNA/15 min; IL-10 at 0.6 fM
Chain of UniProt P22301 (P22301 19-178 limits assumed): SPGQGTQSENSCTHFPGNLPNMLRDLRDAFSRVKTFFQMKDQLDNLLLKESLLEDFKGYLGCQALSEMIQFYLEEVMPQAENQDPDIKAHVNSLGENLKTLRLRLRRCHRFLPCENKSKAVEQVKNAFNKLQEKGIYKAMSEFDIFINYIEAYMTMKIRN

[34] = target: human interleukin-10 (IL-10) protein standard (printed as Biolegend 501501) (human) (UniProt P22301); assay: conventional Simoa sandwich (capture beads + detector m5), 150 pM SβG/5 min; IL-10 at 0.12 fM
[35] = target: human interleukin-10 (IL-10) protein standard (printed as Biolegend 501501) (human) (UniProt P22301); assay: conventional Simoa sandwich (capture beads + detector m5), 150 pM SβG/5 min; IL-10 at 75 fM
[36] = target: human interleukin-10 (IL-10) protein standard (printed as Biolegend 501501) (human) (UniProt P22301); assay: conventional Simoa sandwich (capture beads + detector m5), 150 pM SβG/5 min; IL-10 at 0.024 fM
[37] = target: human interleukin-10 (IL-10) protein standard (printed as Biolegend 501501) (human) (UniProt P22301); assay: dSimoa sandwich (capture beads + detector m5), 150 pM streptavidin-DNA/15 min; IL-10 at 0.00096 fM
[38] = target: human interleukin-10 (IL-10) protein standard (printed as Biolegend 501501) (human) (UniProt P22301); assay: conventional Simoa sandwich (capture beads + detector m5), 150 pM SβG/15 min; IL-10 at 0.6 fM
[39] = target: human interleukin-10 (IL-10) protein standard (printed as Biolegend 501501) (human) (UniProt P22301); assay: dSimoa sandwich (capture beads + detector m5), 150 pM streptavidin-DNA/15 min; IL-10 at 15 fM
[40] = target: human interleukin-10 (IL-10) protein standard (printed as Biolegend 501501) (human) (UniProt P22301); assay: conventional Simoa sandwich (capture beads + detector m5), 150 pM SβG/5 min; IL-10 at 15 fM
[41] = target: human interleukin-10 (IL-10) protein standard (printed as Biolegend 501501) (human) (UniProt P22301); assay: dSimoa sandwich (capture beads + detector m5), 150 pM streptavidin-DNA/15 min; IL-10 at 0.024 fM
[42] = target: human interleukin-10 (IL-10) protein standard (printed as Biolegend 501501) (human) (UniProt P22301); assay: conventional Simoa sandwich (capture beads + detector m5), 150 pM SβG/15 min; IL-10 at 0.12 fM
[43] = target: human interleukin-10 (IL-10) protein standard (printed as Biolegend 501501) (human) (UniProt P22301); assay: conventional Simoa sandwich (capture beads + detector m5), 150 pM SβG/5 min; IL-10 at 0.0048 fM
[44] = target: human interleukin-10 (IL-10) protein standard (printed as Biolegend 501501) (human) (UniProt P22301); assay: conventional Simoa sandwich (capture beads + detector m5), 150 pM SβG/5 min; IL-10 at 0.6 fM
[45] = target: human interleukin-10 (IL-10) protein standard (printed as Biolegend 501501) (human) (UniProt P22301); assay: dSimoa sandwich (capture beads + detector m5), 150 pM streptavidin-DNA/15 min; IL-10 at 3 fM
[46] = target: human interleukin-10 (IL-10) protein standard (printed as Biolegend 501501) (human) (UniProt P22301); assay: conventional Simoa sandwich (capture beads + detector m5), 150 pM SβG/15 min; IL-10 at 75 fM
[47] = target: human interleukin-10 (IL-10) protein standard (printed as Biolegend 501501) (human) (UniProt P22301); assay: dSimoa sandwich (capture beads + detector m5), 150 pM streptavidin-DNA/15 min; IL-10 at 0.12 fM
[48] = target: human interleukin-10 (IL-10) protein standard (printed as Biolegend 501501) (human) (UniProt P22301); assay: dSimoa sandwich (capture beads + detector m5), 150 pM streptavidin-DNA/15 min; IL-10 at 0.0048 fM
[49] = target: human interleukin-10 (IL-10) protein standard (printed as Biolegend 501501) (human) (UniProt P22301); assay: conventional Simoa sandwich (capture beads + detector m5), 150 pM SβG/15 min; IL-10 at 0.024 fM
[50] = target: human interleukin-10 (IL-10) protein standard (printed as Biolegend 501501) (human) (UniProt P22301); assay: conventional Simoa sandwich (capture beads + detector m5), 150 pM SβG/15 min; IL-10 at 15 fM
[51] = target: human interleukin-10 (IL-10) protein standard (printed as Biolegend 501501) (human) (UniProt P22301); assay: conventional Simoa sandwich (capture beads + detector m5), 150 pM SβG/15 min; IL-10 at 0.0048 fM
[52] = target: human interleukin-10 (IL-10) protein standard (printed as Biolegend 501501) (human) (UniProt P22301); assay: conventional Simoa sandwich (capture beads + detector m5), 150 pM SβG/5 min; IL-10 at 3 fM
[53] = target: human interleukin-10 (IL-10) protein standard (printed as Biolegend 501501) (human) (UniProt P22301); assay: conventional Simoa sandwich (capture beads + detector m5), 150 pM SβG/15 min; IL-10 at 3 fM

Chain of UniProt O15178 (O15178 whole entry): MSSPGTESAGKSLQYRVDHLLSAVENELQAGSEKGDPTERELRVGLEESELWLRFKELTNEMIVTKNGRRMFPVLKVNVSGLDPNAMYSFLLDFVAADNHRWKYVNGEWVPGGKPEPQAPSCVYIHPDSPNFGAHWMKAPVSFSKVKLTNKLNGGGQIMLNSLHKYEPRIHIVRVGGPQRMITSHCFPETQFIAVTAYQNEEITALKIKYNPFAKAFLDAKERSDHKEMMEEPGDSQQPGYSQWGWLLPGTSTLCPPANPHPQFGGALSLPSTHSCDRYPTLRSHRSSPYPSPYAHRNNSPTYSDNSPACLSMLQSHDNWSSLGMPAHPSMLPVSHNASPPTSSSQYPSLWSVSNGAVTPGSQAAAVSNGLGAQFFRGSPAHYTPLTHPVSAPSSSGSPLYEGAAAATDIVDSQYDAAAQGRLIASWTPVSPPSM

## Brachyury capture antibody (Abcam ab236023)
[1]
  average AEB: 0.677 AEB
[2]
  average AMB: 0.156 AMB
[3]
  average AEB: 0.0174 AEB
[4]
  average AMB: 0.0127 AMB
[5]
  average AEB: 0.012 AEB
[6]
  average AEB: 5.97 AEB
[7]
  average AEB: 0.358 AEB
[8]
  average AEB: 0.0108 AEB
[9]
  average AEB: 0.0395 AEB
[10]
  average AEB: 0.105 AEB
[11]
  average AMB: 0.0173 AMB
[12]
  average AEB: 14.3 AEB
[13]
  average AMB: 0.0147 AMB
[14]
  average AEB: 0.0425 AEB
[15]
  average AEB: 0.156 AEB
[16]
  average AEB: 0.0398 AEB
[17]
  average AMB: 0.825 AMB
[18]
  average AMB: 0.0417 AMB
[19]
  average AEB: 1.77 AEB
[20]
  average AEB: 0.0494 AEB

## IL-6 capture antibody (R&D Systems MAB206)
[21]
  average AEB: 0.0151 AEB
[22]
  average AEB: 0.005 AEB
[23]
  average AEB: 0.0098 AEB
[24]
  average AEB: 0.005 AEB
[25]
  average AEB: 0.0937 AEB
[26]
  average AEB: 0.111 AEB
[27]
  average AEB: 1.03 AEB
[28]
  average AEB: 0.171 AEB
[29]
  average AEB: 0.0058 AEB
[30]
  average AEB: 0.0031 AEB
[31]
  average AEB: 0.0151 AEB
[32]
  average AEB: 0.522 AEB

## IL-10 capture antibody (Biolegend 506802)
[33]
  average AMB: 0.0281 AMB
[34]
  average AEB: 0.0208 AEB
[35]
  average AEB: 1.41 AEB
[36]
  average AEB: 0.0218 AEB
[37]
  average AMB: 0.0045 AMB
[38]
  average AEB: 0.05 AEB
[39]
  average AMB: 0.561 AMB
[40]
  average AEB: 0.306 AEB
[41]
  average AMB: 0.0058 AMB
[42]
  average AEB: 0.0395 AEB
[43]
  average AEB: 0.0194 AEB
[44]
  average AEB: 0.0296 AEB
[45]
  average AMB: 0.121 AMB
[46]
  average AEB: 2.05 AEB
[47]
  average AMB: 0.0097 AMB
[48]
  average AMB: 0.0042 AMB
[49]
  average AEB: 0.0439 AEB
[50]
  average AEB: 0.386 AEB
[51]
  average AEB: 0.0355 AEB
[52]
  average AEB: 0.0765 AEB
[53]
  average AEB: 0.107 AEB
